# Measured values taken from publication PMC4234207.
# Target: T1, GST-FKH-FoxA2 (Rattus norvegicus (rat; cloned from genomic DNA)) (UniProt P32182)
# T1 sequence (P32182 145-290, looked up): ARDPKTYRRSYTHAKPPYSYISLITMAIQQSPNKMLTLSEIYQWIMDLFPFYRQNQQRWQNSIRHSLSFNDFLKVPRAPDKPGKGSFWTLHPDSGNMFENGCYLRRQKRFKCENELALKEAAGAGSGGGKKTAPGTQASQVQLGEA
# Test: competition EMSA
# Settings: 25 mM HEPES pH 7.6, 150 mM KCl, 0.2 mM EDTA, 0.2 mM EGTA, 10% glycerol, 1 mM DTT, 3 ug protein, 1 ng 32P-TTR probe, 2/5/20 ng competitor, on ice 15 min; 4% …
row,Sequence,binding signal (EMSA score (TTR=1))
1,CAGTAAACTCTGCTGTGTGTACAGATAACATTAC (double strand) [non-site chr7:119551431],0.22
2,CAGTAAGCCTCGCGTTGTTTGGTTAAGGGGCAGG (double strand) [FoxA BS chr1:7078701],0.83
3,CAGTAAGGTTATTATTATTTGTTTTATTTTGTTT (double strand) [FoxA BS chr10:75378448],0.83
4,CAGTACCCCAGGATTTGTGGGCTGTGGGTGTGGC (double strand) [non-site chr7:44970992],-0.11
5,CAGTACTAGATGTTTACTTTAAGGGACCAG (double strand) [FoxA BS chr9:107745824],1.3
6,CAGTACTCATCCTGCTATTGACAGTCGGATATAT (double strand) [FoxA BS chr7:29476412],0.4
7,CAGTAGAGGTCTTCCTCTTTGCCCATGTTGTGGG (double strand) [non-site chr7:26648074],-0.16
8,CAGTAGCCCCTCCTGTGTTGTCTTCCAGTAGATG (double strand) [non-site chr7:59095749],0.09
9,CAGTAGCGCCTGCAGTTTACCTTGGCTCCG (double strand) [non-site chr9:102865800],0.13
10,CAGTAGGGTCAAGGTAGTTTGCATATCTTCCAAC (double strand) [non-site chr7:83767529],0.24
11,CAGTAGGTTTCTCTATTGACTCTATTGCCT (double strand) [FoxA BS chr11:45798706],0.49
12,CAGTATGTGTTGTTGTTGACTTTAAGGTCG (double strand) [FoxA BS chr9:107420590],0.93
13,CAGTATTGGACATTGTTTATTTGTTTTGCC (double strand) [FoxA BS chr1:141375708],1.21
14,CAGTATTTATTTGTATGTATTTTGAGACAG (double strand) [FoxA BS chr3:116606401],0.38
15,CAGTCACCGTTGTTTGTTCTGTGACAAATA (double strand) [FoxA BS chr19:56926814],0.68
16,CAGTCAGCTCCCATGTTTACCAGGCCTTGA (double strand) [FoxA BS chr6:121311851],0.57
17,CAGTCAGTGGAAGGCTGTTAACTGTGCCTGCTGC (double strand) [non-site chr13:40870570],-0.02
18,CAGTCATATAGGCTCTGTTTGAACATTAATTAAC (double strand) [FoxA BS chr15:82621996 b],0.31
19,CAGTCCAGACTCGCTTGTTGACAGAGCTCAGGGC (double strand) [FoxA BS chr12:77880754 a],0.38
20,CAGTCCAGGGGACCTGTTTACCTTACATAG (double strand) [FoxA BS chr17:45901267],0.7
21,CAGTCCCGGGCCTGTTTGCTTTTCCATACA (double strand) [FoxA BS chr12:8003233],0.5
22,CAGTCCCTATCTGTGTTTACAGCTGGTTTC (double strand) [non-site chr5:139643316],0.18

row,Sequence,binding signal (EMSA score (TTR=1))
1,CAGTCCCTTCCCTTATTTACATTCCCGAGA (double strand) [FoxA BS chr7:140707466 a],1.13
2,CAGTCCGGGATTGGCTGTTTGTAATCTGCTCGAC (double strand) [non-site chr17:74394072],0
3,CAGTCCTGGCTTTCCTGCTTACCCAACAACCGCT (double strand) [non-site chr3:94456673 b],0.07
4,CAGTCCTTGTGCTTATTTACATACCCCGCC (double strand) [FoxA BS chr19:12527263],0.84
5,CAGTCGTCTTCCCTGTGTGCTTACTATGCA (double strand) [non-site chr12:85340663 b],0.07
6,CAGTCGTGACCTTTGTTGACTCGCGTCAGT (double strand) [FoxA BS chrX:17319260],0.53
7,CAGTCTCCCGGCCGGGGTTGACTCTCTCTGAGCT (double strand) [non-site chr8:87127281],0.11
8,CAGTCTCCTCCATTGTGTACACTCCCCCTC (double strand) [FoxA BS chr7:44717527],0.49
9,CAGTCTCTGAGTGACTGTTTTCTGTAATACCCAA (double strand) [non-site chr15:91019750],0.01
10,CAGTCTCTGCCCCTCTATTGGTCTAGCTCTCCAA (double strand) [non-site chr16:22806861],0.06
11,CAGTCTGAGAAACCTTGTTGATCTCAGGCAACCC (double strand) [non-site chr8:13025407 a],0.07
12,CAGTCTGCCCTGCTGTTTACCAGCTGGAGA (double strand) [FoxA BS chr3:94456673 a],0.29
13,CAGTCTGCGGCGCCAGATTTACACAGCGCGAGGA (double strand) [FoxA BS chr7:15773405],0.25
14,CAGTCTTGAGGCCTGTTTACCGTCCAGTTA (double strand) [FoxA BS chr19:44039737],0.43
15,CAGTGACAACCAATGTTGACTTAAAACCTT (double strand) [FoxA BS chr4:61847631],0.82
16,CAGTGAGGCGGGGTGTTGACTCTTACGCCA (double strand) [FoxA BS chr8:112454327],0.33
17,CAGTGCAACAAGTTGTTTACACTCTTCATT (double strand) [FoxA BS chr6:34792983 a],0.82
18,CAGTGCGGCGCTGTGTTTACCTTCCGGGAG (double strand) [FoxA BS chr11:85168610],1.08
19,CAGTGCGTGCATTGGTGTTCGCTCAGAGCGGGAC (double strand) [non-site chr6:5446118],0
20,CAGTGCTAGATCCAGTTTTTACACAGAAAGTTTC (double strand) [non-site chr8:13025407 b],-0.06
21,CAGTGGAACCTCTGATGTTGACTTTCCCTTGATT (double strand) [FoxA BS chr15:82621996 a],0.38
22,CAGTGGACCTTATTTACTTTCCTTAGCAAG (double strand) [FoxA BS chr12:85340663 a],0.99

row,Sequence,binding signal (EMSA score (TTR=1))
1,CAGTGGATGCCTCTATTTGTTTAATCACAG (double strand) [FoxA BS chr9:122199103],1.1
2,CAGTGGCATCCGACTGATTTACTGAGCTGGTTCC (double strand) [non-site chr7:140707466 b],0
3,CAGTGGGACCTGTCTTGTTGACCCATCACGTCAC (double strand) [FoxA BS chr17:32151628],0.47
4,CAGTGGTCACCCTTTGGTTTACCTTTTAGGAACA (double strand) [FoxA BS chr8:96902217 a],0.52
5,CAGTGTGAGTGTGTGTGTGTATACAGCGTGAGTC (double strand) [FoxA BS chr15:59478046],0.26
6,CAGTGTGTTCCTATGTGTACACAGTACTTG (double strand) [FoxA BS chr4:3604382],0.91
7,CAGTGTTCAGAGCTGTTTACTTGAACGCGA (double strand) [FoxA BS chr6:34792983 b],0.53
8,CAGTGTTGCCCGTCGTATTTGTATATGGTTTCCT (double strand) [FoxA BS chr10:79387812],0.58
9,CAGTTATCAATGTTTGTTTACCTTGTGGCT (double strand) [FoxA BS chrX:6878436],1.65
10,CAGTTATCTGTACTTTATTTTCAAACGCTATAAT (double strand) [non-site chr8:96902217 b],-0.01
11,CAGTTCACCTGAGGGTGTGTACACAGTCTCTCAG (double strand) [FoxA BS chr7:100410756],0.56
12,CAGTTCATGCCACAGTTTACTCTGGTCCCT (double strand) [non-site chr1:154160175],0.24
13,CAGTTGCCTTTCTGTTTGTTGTTTTGGAGG (double strand) [non-site chr5:30822343],0.21
14,CAGTTGCGCCCCGGGTGTTGGCAGCGAGAAGTGG (double strand) [non-site chr12:77880754 b],0.03
15,CAGTTGCTGGCCTAATGTGGACACAGGGGGTTCC (double strand) [FoxA BS chr3:83135377],0.64
16,CAGTTGGAGTAGTTATTTACCTTAGCAGCC (double strand) [FoxA BS chr16:13816438],0.81
17,CAGTTGGCCCCAGTATTTACATTTCTAACA (double strand) [FoxA BS chr15:54962925],0.92
18,CAGTTGGGCATATTTGCTCAGAACCTGGTA (double strand) [FoxA BS chr1:159362347],0.37
19,CAGTTTCAAAGCTTGTTGACGGAGAGAAAT (double strand) [non-site chr17:25500984],0.2
20,CAGTTTGGGTCAATATTTATTCTTTCATTT (double strand) [FoxA BS chr19:38189585],0.48

# Same assay, conditions: negative control; 25 mM HEPES pH 7.6, 150 mM KCl, 0.2 mM EDTA, 0.2 mM EGTA, 10% glycerol, 1 mM DTT, 3 ug protein, 1 ng 32P-TTR probe, 2/5/20 ng competitor, on ice 15 min; 4% …
row,Sequence,binding signal (EMSA score (TTR=1))
1,CGATCAAAACTAGGTCAAAGGTCA (double strand) [PPAR],0
